From publication doi:10.1101/2023.06.21.546012 (bioRxiv, 2023)

B1: Tom6 (natural protein)
chain: MDGMFAMPGAAAGAASPQQPKSRFQAFKESPLYTIALNGAFFVAGVAFIQSPLMDMLAPQL
B2: Tom7 (natural protein)
chain: MSFLPSFILSDESKERISKILTLTHNVAHYGWIPFVLYLGWAHTSNRPNFLNLLSPLPSV
B3: Tom22 with a C-terminal His10 tag (natural protein)
chain: MVELTEIKDDVVQLDEPQFSRNQAIVEEKASATNNDVVDDEDDSDSDFEDEFDENETLLDRIVALKDIVPPGKRQTISNFFGFTSSFVRNAFTKSGNLAWTLTTTALLLGVPLSLSILAEQQLIEMEKTFDLQSDANNILAQGEKDAAATAN

Each binder was assayed against T1, Tom40 (S. cerevisiae (endogenous in the …, UniProt P23644 1-387)) (assay: cryo-EM structure).
T1 sequence: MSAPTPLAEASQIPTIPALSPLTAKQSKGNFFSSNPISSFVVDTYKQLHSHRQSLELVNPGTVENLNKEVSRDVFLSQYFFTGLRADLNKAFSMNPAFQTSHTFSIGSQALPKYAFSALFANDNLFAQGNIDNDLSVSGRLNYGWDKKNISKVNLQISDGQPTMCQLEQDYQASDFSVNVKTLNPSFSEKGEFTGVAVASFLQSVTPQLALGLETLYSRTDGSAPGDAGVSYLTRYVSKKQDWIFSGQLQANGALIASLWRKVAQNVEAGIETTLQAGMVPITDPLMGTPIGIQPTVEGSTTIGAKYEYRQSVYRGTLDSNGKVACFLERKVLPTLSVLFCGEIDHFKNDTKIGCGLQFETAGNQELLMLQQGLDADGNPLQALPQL

Binding result, binds:
B1, B2, B3, MFGLPQQEVSEEEKRAHQEQTEKTLKQAAYVAAFLWVSPMIWHLVKKQWK (natural protein) [Tom5]
